Laboratory results from the nanobody polyreactivity screen of Harvey et al. (2022).

Test: yeast display, Sf9 membrane polyspecificity reagent, FACS + sequencing; frameworks hold sequencing errors
Summary of the method: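 Galactose induction of a Saccharomyces cerevisiae BJ5465 synthetic nanobody display library ran 36–48 hours. The cells were then stained for 1 hour at 4 °C with 10% biotinylated, detergent-solubilized Sf9 membrane reagent, pulled down on streptavidin microbeads and FACS-sorted into low and high (top ~1%) gates on expression and reagent-binding fluorescence. Labels for polyreactivity follow the gate of origin.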

Sequence	polyreactivity (PSR sort gate)
QVQLVVSGGGLVQAGGSLRLSCAASGSLFTPYAMGWYRQAPGKERELVATISWSGGRTYYADSVKGRFTISRDNAKNPVYLQMNSLKPEDTAVYYCAARGYSSEYDYWGQGTQVTVSS	high polyreactivity
HVQIVESGGGLVQAGGRLRLSCAASGSTFHDYAMGWYRQATGQERELVAAISNSGGSTYYADSVKARFTISRDNAKNTVYLQMKSQKPEYTAVYYCAADGRWYWDYEYWGQGTQVTVSS	low polyreactivity
QVQLVESGGRLVQAGGSLRLSCAASGRIFYPYAMGWYRQAPGKERELVASISSSGDRTYYADSVKGRFTISRDNAKNTVYLQMNSLKPEDTAVYYCAARWRYTYYYWGQGTQVTVSS	high polyreactivity
QVQLVESGGGLVQAGGSLRLTCAASGSIFGFNAMGWYRQAPGKERELGAAISSGSTYYADSVKGRFTISRDNAKNTVYLQINSLKPEDTAVYYCNARSNRGRFEYWGQGTQVTESS	low polyreactivity
QVQLVESGGGLVQAGGSLRLSCAASGFTIYYYAMAWYRQAPGKERELVAAISYSGGSTYYADSVKGRFTISRDNAKNTVYLQMNSLKPEDTAVYYCAVDWYGSYGYGGSQKSDYWGLGTQVTVSS	high polyreactivity
QVQLVESGGGLVQAGGSLRLSCAASGSSFIINAMGWYRKAPGKERELVAAITSGGSTSYADSVKGRFTISRDNAKYTVYLQMNSLNPEDTAVYYCATDHDIGYNFNRYDYWGLGTQVTVSS	low polyreactivity
QVQLVESGGGLVQAGGSLRLSCAASGFTFVYYNMGWYRQAPGKERELVAAITQSGGRTYYADSVKGRFTISRDNAKNTVYLQMNCLKPEDTAVYYCAARLWGKRDYRMDYWGQGSQVTVSS	high polyreactivity
QVQLVESGGGLVQAGGSLRLSSASSGFTFNKYAMGRYRQAPGKERELVAAISSSGGSTRYADSVKGRFTISRDNAKNTVYLQMNSLNPEDTAVFYCAVYVTRDSGWLLYDYWGQGTQVTVSS	high polyreactivity
QVQLVESGGGLVQAGGSLRLSCAASGRIFGFNTMGWYRQAPGKERELVAAISRNGGSTYYADSVKGRFTISRDNAKNTVYLEMNSLKPEDTAVYYCAKRWYPYSYDYWGQGTQVTVSS	high polyreactivity
QVQLVESGGGLVQAGGSLSLSCAASGRTFKRYAMGWYRQAPGKERELVAAITSSGTSTYADSVKGRFTISRDNAKNTVYFQMNSLKPEDTAVYYCNRGYFNSRTPTFDYWGQGTQVTVSS	low polyreactivity
QVQLVESGGGLVQAGGSLRLSCAASGRIFQGYAMGWYRKAPGKERELVAAIRSGSGSTYYADSVKGRFTISRDNAKNTVYLQMNSLKPEDTAVYYCAADRYYWGQGTQVTVSS	low polyreactivity
QVQLVESGGGLVQAGGSLRLSCAASGSTFDAYAMGWYRQAPGKERELVAAITNAGSTNYADSVKGRFTISRDNAKNTVYLQMNSLKPEDTAVYYCATDWYHRYLDGRYDYWGQGTQVTVSS	low polyreactivity
QVQLVESGGGLVQAGGSLRLSCAASGSIFHWNAKGWYRQAPGKERELVAGITTSGGTTYYADSVKGRFTISRDNAKNTVYLQMNSLKPEDTAVYYCAARIIRWRPRWPSYGKYDYWGQGTQVTVSS	low polyreactivity
QVQLEESGGGLVQAGGSLRLICAASGRTCGSNTMGWYRQAPGKERELVAASTISCGSTYYADSVKGRFTFSRDNAKNTVYLQMNSLKPDVTALDYCATRLWGQGGGRTTSYMYYWGQGTQVTVSS	high polyreactivity
HVQLEETGRGLVQAGGSLRISCAASGRIFEYYAMGWYRQAPGKDRELVAAITSSTGSTSYADSVKGRFTISRDNEKNTVYLQMNSLKPEDTAVYYCAADVWFFSKLSRYDYWGQGTQVTVSS	low polyreactivity
QVQLVESGGGLVQAGGSLRLSCAASGSTFQYNAMGWYRQAPGKEREFVAAISRTGTSTYYADSVKGRFTISRDNAKNTVYLQMNSLKPEDNAVYYCAAKSLRSGMGYWGQGTQVTVSS	high polyreactivity
QVQLVESGGGLVQAGGSLRLSCAASGSIFAHYAMGWYRQAPGKERELVAAISKNAGSTYYADSVKGRFTISRDNAKNTVYLQMNSLKPEDTAVYYCATGYQKPYSSDYWGQGTQVTVSS	high polyreactivity
QVQIVESGGGLVQAGGSLRLSCAASGSTFPTYAMGRYRQAPGKERELVAAITSGSGTNTYYADSVKGRFTISRDNAKNTVYLQMNSLKPEDTAVYYCAKSFRKKYGWGQGTQVTVSS	high polyreactivity
QVQLVESGGGLVQAGGSLRLSCAASGLTFYFYAMGWYRQAPGKERELVAAINSGGSTNYADSVKGRFTISRDNAKNTVYLQMNSLKPEDTAVYYCNADYYFTSYEYEYWGQGTQVTVSS	low polyreactivity
QVQLVESGGGLVQAGGSLRLTCAASGRTFAWYAMGWYRQAPGKERDLVAAISSAGSTYYADSVKGRFTISRDNAKNTVYLQMNSLKPEDTAVYYCAASFGRYTSGTYYYWGQGTQVTVSS	high polyreactivity
QVQLVESGGGLVQAGGSLRLSCAASGRTFGRYTMGWYRQAPGKERELVAAITGRGGSTFYADSVKGRFTISRDYAKNTVYLQMNSLKPEDTAVYYCAARRTSIKDQFYYWGQGTQVTVSS	high polyreactivity
QVQLVESWGGLVQAGGSLRLSCAASGRIFYKYAMGWYRQAPGKERELVAAISYSGGSTYYADSVKGRFTISRDNAKITVYLQMKSLKQEDTAVDDCNAKPPYGVRSWGDYWGQGTKVTVSS	low polyreactivity

Sequence	polyreactivity (PSR sort gate)
QVQLVESGGGLVQAGGSLRLSCAASGGTIRYYAMGWYSQAPWKERELVAAISVGGGRTYYADSVKGRFTISRDNAKNTVYLQMNSLKPEDTAVYYCAADYASWSNWGYEYWGQGTQVTVSS	high polyreactivity
QVQLLESGGGLVQAGGSLRISCAASGFTFWYYAMGWYRQAPGKERELVAAITSSGGSTYYADSVKGRFTISRDNAKNTVYLQMNSLKPEDTAVYYCAAGAPYRYYYWGQGTQVTVSS	high polyreactivity
QVQLVESGGGLVQAGGRLRLSCAASGSIFRYYDMGWYRQATGKEREFVAAISYRGGTTYYADSVKGRFTISRDNAKNTVYLQMNSLKPEDTAVYYCAKETYRSSSYDWYDYWGQGTQVTVSS	low polyreactivity
QVQLVESGGGLVQAGGSLRLSCAASGYIFGYYAMGWYRQAPGQEREFVAAINWSGGSTYYADSVNGRFTISRDNAKNTVYLQMNSLKPEDTAVYYCARSYRSRVVYKFGYWGQGTQVTVSS	high polyreactivity
QVQLVESGGGLVQAGGSLRLSCAASGSTFYLYAMGWYRQAPGKERELVAAITRGGTTNYADSVKGRFTISRDNAKNTVYLQMNSLKPEDTAVYYCAKEVTTLLSLYEIVDRDYWGQGTQVTVSS	low polyreactivity
QVQLVESGGGLVQAGASLRLRCAASGRTFYYKTMGWYRQAPGKERELVAAITRNGGSTYYADSVKGRFTISRDKAKNTVYLQMKSLKLEDTAVYSCGAEGPSHRLNVRQVKGSDSWGQGTQVSVSS	low polyreactivity
QVQLVESGGGLVQAGGSLRLSCAASGFTFVVYAMGWYRQAPGKERELVAAISARGGRTYYADSVKGRFTISRDNAKNTVYLQMNSLKPEDTAVYYCAATNQRQTRYDYWGQGTQVTVSS	high polyreactivity
QVQLVESGGGLVQAGGSLRLSCAASGRTFSRYVMGWYRQAPGKERELVAAISRTGGRTYYADSVKGRFTISRDNAKNTVYLQMNSLKPEDTAVYYCNAGTVLISTYDYWGQGTQVSVSS	high polyreactivity
QVQLVESGGGLVQAGGSLRLSCAASGYIFGSYVMGGYRQAPGKERELVAAITRIGASTYYADSVKGRFTISRDNAKNTVYLQMNSLKPEDTAVYYCATDQGGYYENDYWGQGTQVTVSS	low polyreactivity
QVQLVESGGGLVQAGGSLRLSCAASGGTVYRNAMGWYRQAPGKERELVAAITRSGSTNYADSVKGRFTISRDNAKNTVYLQMNSLKPEDTAVYYCAAKFFRNTYSYGMDYWGQGTQVTVSS	high polyreactivity
QVQLVESGGGLVQAGGSLRLSCAASGRTFYPYAMGWYRQAPGKEREFVAVINRSVGSPYYADSVNGRFTISRDNAKNTVYLQMNSLKPEDTAVYYCAAREPLSYYVGGDYWGQGTQVTVSS	low polyreactivity
QVQLVESGGGLVQAGGSLRLSCAASGSIFVYYAMGWYRQAPGKERELVAAITETGGDTYYADSVKGRFTISRDNAKNTVYLQMNSLKPEDTAVYYCNTVRRSYWSWSTENSDYWGQGTQVTVSS	low polyreactivity
QVQLVESGGGLVQPGGSLRLSCAASGSIFRVYAMGWYRQAPGKERELVAAISRGGNTNYADSVKGRFTISRDNAKNTVYLQKNSLKPEDTAVYYCNARYYSWDWWIGYDYWGQGTLVTVSS	high polyreactivity
QVQLVESGGGLVQAGGSLRLSCAASGSIIILYAMGWYRQAPGKERELVAAISLRGGRTYYADSVKGRFTISRDNAKNTVYLQMNSLKPEVTSVYYCATPVTNGFDYWGQGTQVTVSS	high polyreactivity
QVQLVESGGGLVQAGGSLRLSCAASGYIFGVNALGWYRQAPGKERELVAAIDSGSRTYYADSVKGRFTISRDNAKNTVYLQMNSLKPEDTAVYYFATTFYVSYGGGYYTIWYDYWGQGTQVTVSS	low polyreactivity
QVQLVESGGGLVQAGGRLRLSCAATGRTFLAYAMGWYREAPGKERELVAAITIGGGTYADSVKGRFTISRDNAKNTVYLQMNSLKQEDTAVYYCAKPGWYDGDYWGQGTQVTVSS	low polyreactivity
QVQLVESGGGLVQAGGSLRLSCAASGSIFSTYARGWYRQAPGKERELVATITSGGNTNYADSVKGRYTISRDNAKNTVYLQMNSLKPEDTAVDYSNKEWDGDGYTDDWDYDYWGQGTQVTVSS	low polyreactivity
QVQLQESGGGLVKAGGSLRLSCAASGSIFYWPWMGWYRQAPGREREFVATITTGSNTYYADSMKGHLTISRDNARNTVYLQMNSLKPEDTAVYYCAVVGDGELEHRYWGQGTQVTVSS	high polyreactivity
QVQLVESGGGLVQAGGSLRLSCAASGSTSLSYVKGWYRQAPGKERELVATITSSGGSTYYADSVKGRFTISRDNAKNTDYLQMNSLKQEDPAVYYCNARSYIYPFSPTSYYRYYWGQGTQVTGSS	high polyreactivity
QVQLVESGGGLVQAGGSLRLSCAASGRIFGHNAMGWYRQAPGKERELVARISSTGSTKYADSVKGRFTISRDNAKNTVYLQMNSLKPEDTAVYYCAAYIIRWKGSSYYWGQGTQVTVSS	high polyreactivity
IIQAGGSLRLSCAASGRTLSGYAMGWYRQAPGKERELIADITSGGSTYYADSVKGRFTISRDNAKNTVYLQMNSLKPEDTAVYYCAAERQIRSFWSSRTYEFGYWGQGTQVTVSS	low polyreactivity
